Laboratory results from patent US20160145657A1, “Methods and Materials for Producing 7-Carbon Chemicals via a C9 Route” (INVISTA North America S.á.r.l., priority 2014, published 2016).

B1: SEQ ID NO 5: Mycobacterium abscessus subsp. bolletii (Mycobacterium massiliense) carboxylate reductase, Genbank Accession No. EIV11143.1 (protein)
chain: MTNETNPQQEQLSRRIESLRESDPQFRAAQPDPAVAEQVLRPGLHLSEAIAALMTGYAERPALGERARELVIDQDGRTTLRLLPRFDTTTYGELWSRTTSVAAAWHHDATHPVKAGDLVATLGFTSIDYTVLDLAIMILGGVAVPLQTSAPASQWTTILAEAEPNTLAVSIELIGAAMESVRATPSIKQVVVFDYTPEVDDQREAFEAASTQLAGTGIALETLDAVIARGAALPAAPLYAPSAGDDPLALLIYTSGSTGAPKGAMHSENIVRRWWIREDVMAGTENLPMIGLNFMPMSHIMGRGTLTSTLSTGGTGYFAASSDMSTLFEDMELIRPTALALVPRVCDMVFQRFQTEVDRRLASGDTASAEAVAAEVKADIRDNLFGGRVSAVMVGSAPLSEELGEFIESCFELNLTDGYGSTEAGMVFRDGIVQRPPVIDYKLVDVPELGYFSTDKPHPRGELLLKTDGMFLGYYKRPEVTASVFDADGFYMTGDIVAELAHDNIEIIDRRNNVLKLSQGEFVAVATLEAEYANSPVVHQIYVYGSSERSYLLAVVVPTPEAVAAAKGDAAALKTTIADSLQDIAKEIQLQSYEVPRDFIIEPQPFTQGNGLLTGIAKLARPNLKAHYGPRLEQMYAEIAEQQAAELRALHGVDPDKPALETVLKAAQALLGVSSAELAADAHFTDLGGDSLSALSFSDLLRDIFAVEVPVGVIVSAANDLGGVAKFVDEQRHSGGTRPTAETVHGAGHTEIRAADLTLDKFIDEATLHAAPSLPKAAGIPHTVLLTGSNGYLGHYLALEWLERLDKTDGKLIVIVRGKNAEAAYGRLEEAFDTGDTELLAHFRSLADKHLEVLAGDIGDPNLGLDADTWQRLADTVDVIVHPAALVNHVLPYNQLFGPNVVGTAEIIKLAITTKIKPVTYLSTVAVAAYVDPTTFDEESDIRLISAVRPIDDGYANGYGNAKWAGEVLLREAHDLCGLPVAVFRSDMILAHSRYTGQLNVPDQFTRLILSLIATGIAPGSFYQAQTTGERPLAHYDGLPGDFTAEAITTLGTQVPEGSEGFVTYDCVNPHADGISLDNFVDWLIEAGYPIARIDNYTEWFTRFDTAIRGLSEKQKQHSLLPLLHAFEQPSAAENHGVVPAKRFQHAVQAAGIGPVGQDGTTDIPHLSRRLIVKYAKDLEQLGLL
B2: SEQ ID NO: 4: Segniliparus rugosus carboxylate reductase, Genbank Accession No. EFV11917.1 (protein)
chain: MGDGEERAKRFFQRIGELSATDPQFAAAAPDPAVVEAVSDPSLSFTRYLDTLMRGYAERPALAHRVGAGYETISYGELWARVGAIAAAWQADGLAPGDFVATVGFTSPDYVAVDLAAARSGLVSVPLQAGASLAQLVGILEETEPKVLAASASSLEGAVACALAAPSVQRLVVFDLRGPDASESAADERRGALADAEEQLARAGRAVVVETLADLAARGEALPEAPLFEPAEGEDPLALLIYTSGSTGAPKGAMYSQRLVSQLWGRTPVVPGMPNISLHYMPLSHSYGRAVLAGALSAGGTAHFTANSDLSTLFEDIALARPTFLALVPRVCEMLFQESQRGQDVAELRERVLGGRLLVAVCGSAPLSPEMRAFMEEVLGFPLLDGYGSTEALGVMRNGIIQRPPVIDYKLVDVPELGYRTTDKPYPRGELCIRSTSLISGYYKRPEITAEVFDAQGYYKTGDVMAEIAPDHLVYVDRSKNVLKLSQGEFVAVAKLEAAYGTSPYVKQIFVYGNSERSFLLAVVVPNAEVLGARDQEEAKPLIAASLQKIAKEAGLQSYEVPRDFLIETEPFTTQNGLLSEVGKLLRPKLKARYGEALEARYDEIAHGQADELRALRDGAGQRPVVETVVRAAVAISGSEGAEVGPEANFADLGGDSLSALSLANLLHDVFEVEVPVRIIIGPTASLAGIAKHIEAERAGASAPTAASVHGAGATRIRASELTLEKFLPEDLLAAAKGLPAADQVRTVLLTGANGWLGRFLALEQLERLARSGQDGGKLICLVRGKDAAAARRRIEETLGTDPALAARFAELAEGRLEVVPGDVGEPKFGLDDAAWDRLAEEVDVIVHPAALVNHVLPYHQLFGPNVVGTAEIIRLAITAKRKPVTYLSTVAVAAGVEPSSFEEDGDIRAVVPERPLGDGYANGYGNSKWAGEVLLREAHELVGLPVAVFRSDMILAHTRYTGQLNVPDQFTRLVLSLLATGIAPKSFYQQGAAGERQRAHYDGIPVDFTAEAITTLGAEPSWFDGGAGFRSFDVFNPHHDGVGLDEFVDWLIEAGHPISRIDDHKEWFARFETAVRGLPEAQRQHSLLPLLRAYSFPHPPVDGSVYPTGKFQGAVKAAQVGSDHDVPHLGKALIVKYADDLKALGLL

Key:
[1] = carboxylate reductase activity, N7-acetyl-7-aminoheptanoate to N7-acetyl-7-aminoheptanal, NADPH consumption at 340 nm; format: biochemical; settings: purified enzyme enhanced by sfp gene product, 2 mM N7-acetyl-7-aminoheptanoate, pH 7.5, room temperature, 20 min; FIG. 10
Method: The activity of each of the N-terminal His-tagged carboxylate reductases of SEQ ID NOs: 3, 5, and 6 (see Examples 2 and 3, and FIG. 6) for converting N7-acetyl-7-aminoheptanoate to N7-acetyl-7-aminoheptanal was assayed in triplicate in a buffer composed of a final concentration of 50 mM HEPES buffer (pH=7.5), 2 mM N7-acetyl-7-aminoheptanoate, 10 mM MgCl2, 1 mM ATP, and 1 mM NADPH. The assays were initiated by adding purified carboxylate reductase and phosphopantetheine transferase or the empty vector control to the assay buffer containing the N7-acetyl-7-aminoheptanoate then incubated at room temperature for 20 min. The consumption of NADPH was monitored by absorbance at 340 nm.

[2] = carboxylate reductase activity, pimelate to pimelate semialdehyde, NADPH consumption at 340 nm; format: biochemical; settings: purified enzyme enhanced by sfp gene product, 2 mM pimelate, pH 7.5, room temperature, 20 min; FIG. 8
Method: A nucleotide sequence encoding a HIS-tag was added to the nucleic acid sequences from Segniliparus rugosus and Segniliparus rotundus that encode the carboxylate reductases of SEQ ID NOs: 4 (EFV11917.1) and 6 (ADG98140.1), respectively (see FIG. 6), such that N-terminal HIS tagged carboxylate reductases could be produced. Each of the modified genes was cloned into a pET Duet expression vector along with a sfp gene encoding a HIS-tagged phosphopantetheine transferase from Bacillus subtilis, both under the T7 promoter. Each expression vector was transformed into a BL21[DE3] E. coli host and the resulting recombinant E. coli strains were cultivated at 37° C. in a 250 mL shake flask culture containing 50 mL LB media and antibiotic selection pressure, with shaking at 230 rpm. Each culture was induced overnight at 37° C. using an auto-induction media.
The pellet from each induced shake flask culture was harvested via centrifugation. Each pellet was resuspended and lysed via sonication, and the cell debris was separated from the supernatant via centrifugation. […]
Enzyme activity assays (i.e., from pimelate to pimelate semialdehyde) were performed in triplicate in a buffer composed of a final concentration of 50 mM HEPES buffer (pH=7.5), 2 mM pimelate, 10 mM MgCl2, 1 mM ATP and 1 mM NADPH. […] The consumption of NADPH was monitored by absorbance at 340 nm. […]

Molecule | acceptance of N7-acetyl-7-aminoheptanoate as substrate (NADPH consumption) against the empty vector control [1] | acceptance of pimelate as substrate (NADPH consumption) against the empty vector control [2]
B1 | accepted N7-acetyl-7-aminoheptanoate as substrate | 
B2 |  | accepted pimelate as substrate
